Results taken from publication PMC7263513 (bioRxiv, 2020).

B1: C146 (antibody, V domains shown)
VH: EVQLVESGGGLVKPGGSLRLSCAASGLTFTAYRMNWVRQAPGKGLEWLSSISNTNGDIYYADSVKGRFTISRDNAKNSLYLQMNSLRADDTAVYYCARDVASNYAYFDLWGQGTLVTVSS
VL: QSALTQPASVSGSPGQSITISCTGTSSDIGVYNYISWSQQHPGKAPKVMIYDVTNRPSGVSNRFSGSKSGNTASLTISGLQAEDEADYYCSSYRGSSTPYVFGTGTKVTVL
B2: C208 (antibody, V domains shown)
VH: EVQLVQSGAEVKKPGESLKISCKGSGYSFTSYWIGWVRQMPGKGLEWMGIIYPGDSDTRYSPSFQGQVTISADKSISTAYLKWSSLKASDSAMYYCARGPNLQNWFDPWGQGTLVTVSS
VL: EIVLTQSPGTLSLSPGERATLSCRASQSVSGSYLAWYQQRPGQAPRLLIYGASSRATGIPDRFSGSGSGTDFTLTISRLEPEDFAVYYCQQYGSSLTFGGGTKVEIK
B3: C212 (antibody, V domains shown)
VH: QVQLVQSGAEVKKPGASVKVSCKASGYTVTGYYIHWVRQAPGQGLEWMGWISPNSGGTNYAQKFQGWVTMTRDMSITTAYMELSRLRSDDTAVYYCARERYFDLGGMDVWGQGTTVTVSS
VL: LTQPASVSGSPGQSITISCTGTSSDVGSYNLVSWYQQHPGKAPKLMIYEDSKRPSGVSNRFSGSKSGNTASLTISGLQAEDEADYYCCSYAGSSTRLFGGGTKLTVL
B4: C211 (antibody, V domains shown)
VH: EVQLVESGGGLVQPGGSLRLSCAASEFTVSSNYMSWVRQAPGKGLEWVSVIYSGGSTFYADSVKGRFTISRDNSKNTLYLQMNSLRPEDTAVYYCARDYGDFYFDFWGQGTLVTVSS
VL: EIVMTQSPATLSVSPGERATLSCRASQSVSSNLAWYQQKPGQGPRLLIYGASTRATGIPARFSGSGSGTEFTLTISSLQSEDFAVYYCQQYNNWPRTFGQGTKVEIK
B5: C214 (antibody, V domains shown)
VH: QVQLVESGGGVVQPGRSLRLSCAASGFTFSSYGMHWVRQAPGKGLEWVAAIWYDGSNKHYADSVKGRFTISRDNSKNTLYLQMNSLRAEDTAVYYCARDVGRVTTWFDPWGQGTLVTVSS
VL: not shown
B6: C215 (antibody, V domains shown)
VH: EVQLLESGGGLVQPGGSLRLSCAASGFTFSSYAMSWVRQAPGKGLEWVSAITDSGDGTFYADSVKGRFTISRDNSKNTLYLQMNSLRAEDTAVYYCASEEDYSNYVGWFDPWGQGTLVTVSS
VL: not shown
B7: C216 (antibody, V domains shown)
VH: EVQLVESGGGLVQPGGSLRLSCAASGFTFSSYDMHWVRQATGKGLEWVSAIGTAGDTYYPDSVKGRFTISRENAKNSLYLQMNSLRAGDTAVYYCARDRGSSGWYGWYFDLWGRGTLVTVSS
VL: not shown

biological target: T1, SARS-CoV-2 receptor binding domain (RBD) (Severe acute respiratory syndrome …, UniProt P0DTC2); test: ELISA

Binder	binding result
B1	no binding (tested: >1000 ng/ml)
B2	no binding (tested: >1000 ng/ml)
B3	no binding (tested: >1000 ng/ml)

biological target: T1, SARS-CoV-2 receptor binding domain (RBD); test: cell-based or functional assay

Binder	IC50 of neutralisation of SARS-CoV-2 pseudovirus (293T_(ACE2) cells) [µg/mL]
B4	0.0128
B5	> 1
B6	> 1
B7	> 1
